For the assay, the target named is alpha-enolase (baker's yeast) (baker's yeast) (UniProt P00924). The assay is described as follows: cross-linking; 1 mg/ml alpha-enolase in PBS with BVSS-Me, BVSS-Et, BVSS-Ph, Alkyne-BVSC or DSBSO (1 mM, 1 h, 37 °C; DSBSO 30 min RT); SDS-PAGE, Coomassie stain; DMSO as negative control.

Broadly, the stoichiometry N is a count of units in the complex or per binding partner. Turning to “alpha-enolase (baker's yeast) (from UniProt P00924 1-437) (enzyme)”, the stoichiometry N came to 2.

The record behind these values is publication PMC12682122.
